Data published in publication PMC6545606.

Columns and labels:
[1] = biological target: K48-linked diubiquitin (Homo sapiens) (UniProt P0CG47); settings: cited from earlier work
ubiquitin (Homo sapiens) = ubiquitin (Homo sapiens) (UniProt P0CG47); settings: cited from earlier work
[2] = biological target: K48-linked diubiquitin (ubiquitin_(K48R) joined to ubiquitin_(G76C)), fluorescently labelled (human) (UniProt P0CG47); assay: other fluorescence titration
[3] = biological target: K63-linked diubiquitin (ubiquitin_(K63R) joined to ubiquitin_(G76C)), fluorescently labelled (human) (UniProt P0CG47); assay: other fluorescence titration
[4] = biological target: ubiquitin_(G76C), fluorescently labelled (human) (UniProt P0CG47); assay: other fluorescence titration

Chain of S5a (P55036 whole entry): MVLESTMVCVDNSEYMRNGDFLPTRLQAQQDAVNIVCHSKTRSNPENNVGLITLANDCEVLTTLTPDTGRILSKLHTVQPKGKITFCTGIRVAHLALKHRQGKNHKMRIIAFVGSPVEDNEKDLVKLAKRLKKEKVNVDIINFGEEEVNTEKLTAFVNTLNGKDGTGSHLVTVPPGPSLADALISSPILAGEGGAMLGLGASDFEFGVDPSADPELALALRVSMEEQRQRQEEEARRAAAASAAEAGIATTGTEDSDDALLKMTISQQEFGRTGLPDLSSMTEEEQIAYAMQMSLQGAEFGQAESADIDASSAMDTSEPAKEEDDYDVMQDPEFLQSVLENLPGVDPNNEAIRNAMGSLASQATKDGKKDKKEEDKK

| Substance | Kd [1] [µM] | Kd (ubiquitin (Homo sapiens)) [µM] | Kd [2] [µM] | Kd [3] [µM] | Kd [4] [µM] |
| --- | --- | --- | --- | --- | --- |
| S5a (from UniProt P55036) | 8.9 | 73 |  |  |  |
| StoD (S. Typhi outer protein D), full-length, untagged (enzyme) |  |  | 15 | 5.6 | 55 |
